Experimental data taken from paper PMC4935067 (Nature, 2015).

Biological target: the molecule itself
Test: SEC

B1: Csy3, MBP/6xHis-tagged (natural protein, Pseudomonas aeruginosa, UniProt Q02MM1 1-342, looked up)
chain: MSKPILSTASVLAFERKLDPSDALMSAGAWAQRDASQEWPAVTVREKSVRGTISNRLKTKDRDPAKLDASIQSPNLQTVDVANLPSDADTLKVRFTLRVLGGAGTPSACNDAAYRDKLLQTVATYVNDQGFAELARRYAHNLANARFLWRNRVGAEAVEVRINHIRQGEVARAWRFDALAIGLRDFKADAELDALAELIASGLSGSGHVLLEVVAFARIGDGQEVFPSQELILDKGDKKGQKSKTLYSVRDAAAIHSQKIGNALRTIDTWYPDEDGLGPIAVEPYGSVTSQGKAYRQPKQKLDFYTLLDNWVLRDEAPAVEQQHYVIANLIRGGVFGEAEEK
binding result: binds
